Test results: PMC8096265, “A functional LSD1 coregulator screen reveals a novel transcriptional regulatory cascade connecting R-loop homeostasis with epigenetic regulation” (Nucleic Acids Research, 2021)

Target: FITC-labelled H3.1 peptide (residues 16-34) trimethylated at K27 (UniProt P68431)
Assay: fluorescence polarisation; fluorescence anisotropy; 50 nM FITC-labelled H3.1 (16-34) peptide in 20 mM HEPES pH 7.5, 100 mM KCl, 0.1 mM DTT, 10% glycerol; DDX19A added stepwise; 23°C; fit to a simple binding equilibrium

Kd: 82 nM
B1: GST-DDX19A (recombinant full-length DEAD-box helicase 19A) (enzyme)
chain: MATDSWALAVDEQEAAVKSMTNLQIKEEKVKADTNGIIKTSTTAEKTDEEEKEDRAAQSLLNKLIRSNLVDNTNQVEVLQRDPNSPLYSVKSFEELRLKPQLLQGVYAMGFNRPSKIQENALPMMLAEPPQNLIAQSQSGTGKTAAFVLAMLSRVEPSDRYPQCLCLSPTYELALQTGKVIEQMGKFYPELKLAYAVRGNKLERGQKISEQIVIGTPGTVLDWCSKLKFIDPKKIKVFVLDEADVMIATQGHQDQSIRIQRMLPRNCQMLLFSATFEDSVWKFAQKVVPDPNVIKLKREEETLDTIKQYYVLCSSRDEKFQALCNLYGAITIAQAMIFCHTRKTASWLAAELSKEGHQVALLSGEMMVEQRAAVIERFREGKEKVLVTTNVCARGIDVEQVSVVINFDLPVDKDGNPDNETYLHRIGRTGRFGKRGLAVNMVDSKHSMNILNRIQEHFNKKIERLDTDDLDEIEKIAN
